# Measured values as given in the supplement of paper PMC10567573.
# B1: GLTSCR2 (parent)
# chain: LARRRRRRQARREAEADKPRRLGR
# B2: SETD8 (parent)
# chain: FVVEYHGDLIEITDAKKREALYAQ
# Variants of: B1
# Assay: protein stability index of a GFP-peptide fusion (GPS, HEK-293T) (PSI 1-6); higher = more stable
# Conditions: c terminus: a fixed tail appended
# 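Also: lentivirally expressed fusions sorted by FACS into six bins by GFP to DsRed ratio, PSI derived from sequencing read proportions per bin multiplied by bin number.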
row,Variant,protein stability index
1,R6E,4.03
2,R6W,4.74
3,R6T,4.69
4,R6G,4.55
5,R6K,4.79
6,R6M,4.27
7,R6A,5.21
8,R6D,4.96
9,R6Q,5.03
10,R6V,3.6
11,R6P,4.57
12,R6L,4.6
13,R6C,4.5
14,R6H,4.28
15,R6N,5.07
16,R6Y,4.13
17,R6F,3.93
18,R6I,3.98
19,R6S,4.86
20,A2R,5.33
21,A2Q,5.01
22,A2P,4.84
23,A2L,3.84
24,A2V,3.51
25,A2S,4.83

row,Variant,protein stability index
1,A2M,4.19
2,A2T,4.28
3,A2I,4.62
4,A2F,3.4
5,A2G,4.78
6,A2D,4.41
7,A2K,4.42
8,A2Y,4.32
9,A2W,3.61
10,A2N,4.9
11,A2C,4.49
12,A2E,4.71
13,A2H,4.76
14,L1D,5.28
15,L1M,4.75
16,L1F,4.4
17,L1E,5.22
18,L1G,5.13
19,L1Q,4.51
20,L1W,4.58
21,L1T,5.33
22,L1A,5.29
23,L1H,5.28
24,L1K,4.56
25,L1N,4.89

row,Variant,protein stability index
1,L1I,4.9
2,L1Y,4.28
3,L1V,4.98
4,L1P,5.18
5,L1C,5.39
6,L1R,5.14
7,L1S,5.66
8,R3D,4.56
9,R3T,4.84
10,R3Y,3.84
11,R3Q,4.99
12,R3V,4.35
13,R3P,5.54
14,R3A,5.01
15,R3G,5.02
16,R3I,4.36
17,R3L,4.3
18,R3N,4.69
19,R3E,5.08
20,R3F,4.34
21,R3W,4.4
22,R3S,4.91
23,R3M,4.41
24,R3K,5.03
25,R3H,4.3

row,Variant,protein stability index
1,R3C,4.74
2,Q9W,3.71
3,Q9G,4.46
4,Q9C,4.4
5,Q9L,4.66
6,Q9K,4.33
7,Q9I,4.75
8,Q9Y,4.33
9,Q9R,4.95
10,Q9V,4.22
11,Q9E,4.38
12,Q9N,4.47
13,Q9A,4.17
14,Q9D,4.44
15,Q9H,4.73
16,Q9M,3.79
17,Q9T,5.12
18,Q9P,4.85
19,Q9F,4.27
20,Q9S,4.57
21,R4E,5.25
22,R4Y,4.16
23,R4N,4.63
24,R4V,3.97
25,R4L,4.59

row,Variant,protein stability index
1,R4C,4.34
2,R4M,4.57
3,R4K,3.13
4,R4G,4.3
5,R4D,4.64
6,R4A,4.39
7,R4H,4.35
8,R4P,4.92
9,R4S,4.17
10,R4Q,4.18
11,R4W,3.11
12,R4T,4.67
13,R4I,4.46
14,R4F,3.75
15,R11L,5.4
16,R11H,4.74
17,R11C,4.64
18,R11E,4.87
19,R11A,4.53
20,R11F,4.09
21,R11G,3.7
22,R11I,4.8
23,R11K,4.52
24,A10Y,4.9
25,A10I,4.55

row,Variant,protein stability index
1,A10V,4.57
2,A10H,5.1
3,A10Q,4.95
4,A10P,5.19
5,A10E,4.55
6,A10K,4.02
7,A10G,4.25
8,A10T,4.21
9,A10W,4.73
10,A10N,4.6
11,A10C,5.01
12,A10L,4.38
13,A10R,4.95
14,A10M,5.21
15,A10F,4.47
16,A10D,3.92
17,A10S,4.66
18,R8Y,4.15
19,R8K,4.3
20,R8L,3.48
21,R8E,4.83
22,R8S,5.01
23,R8H,4.75
24,R8A,4.98
25,R8V,4.18

row,Variant,protein stability index
1,R8C,3.8
2,R8M,4.98
3,R8T,4.21
4,R8Q,4.23
5,R8I,4.3
6,R8D,4.83
7,R8G,4.25
8,R8P,4.44
9,R8W,4.48
10,R8F,4.64
11,R8N,4.48
12,R5K,4.54
13,R5H,4.18
14,R5A,4.69
15,R5C,4.21
16,R5M,4.36
17,R5F,4.76
18,R5L,3.81
19,R5I,3.79
20,R5E,5.13
21,R5S,4.42
22,R5V,4.54
23,R5G,4.36
24,R5W,4.12
25,R5P,5.1

row,Variant,protein stability index
1,R5Q,4.33
2,R5N,5.32
3,R5D,4.52
4,R5Y,4.45
5,R5T,4.15
6,R7H,4.73
7,R7S,4.66
8,R7T,4.76
9,R7K,5.11
10,R7E,4.93
11,R7V,4.6
12,R7F,4.28
13,R7G,4.71
14,R7N,4.83
15,R7W,4.63
16,R7D,4.88
17,R7M,5.22
18,R7C,4.83
19,R7I,4.41
20,R7L,4.76
21,R7A,4.18
22,R7Y,4.64
23,R7Q,4.19

# Variants of: B2
# Assay: as above
# Conditions: c terminus: a fixed tail appended
row,Variant,protein stability index
1,L21M,1.7
2,L21R,1.39
3,L21Y,1.97
4,L21S,2.36
5,L21V,1.91
6,L21Q,2.21
7,L21G,2.05
8,L21F,1.73
9,L21D,2.52
10,L21K,2.38
11,L21T,1.94
12,L21W,2.22
13,L21A,2.01
14,L21I,1.36
15,L21P,3.09
16,L21E,2.88
17,L21C,1.82
18,L21N,1.81
19,L21H,2.79
20,Y22M,2.95
21,Y22F,1.79
22,Y22D,2.21
23,Y22C,2.13

row,Variant,protein stability index
1,Y22E,2.6
2,Y22T,1.76
3,Y22S,1.68
4,Y22Q,2.06
5,Y22K,2.88
6,Y22N,3.26
7,Y22W,1.56
8,Y22L,1.47
9,Y22G,1.43
10,Y22H,1.84
11,Y22V,2.08
12,Y22R,1.99
13,Y22P,2.29
14,Y22I,1.94
15,Q24W,1.63
16,Q24D,1.77
17,Q24P,2.05
18,Q24S,1.6
19,Q24V,1.85
20,Q24A,2.5
21,Q24E,1.86
22,Q24L,1.51
23,Q24R,2.89

row,Variant,protein stability index
1,Q24F,1.5
2,Q24T,2.09
3,Q24K,1.86
4,Q24C,1.35
5,Q24M,1.75
6,Q24N,1.71
7,Q24I,1.75
8,Q24Y,1.32
9,Q24G,1.37
10,Q24H,1.64
11,A20C,2.08
12,A20N,1.7
13,A20P,1.08
14,A20Q,1.78
15,A20D,2.48
16,A20L,1.39
17,A20W,1.47
18,A20H,2.64
19,A20R,1.68
20,A20G,1.75
21,A20K,1.85
22,A20I,2.09
23,A20V,1.97

row,Variant,protein stability index
1,A20F,1.39
2,A20M,1.38
3,A20E,2.67
4,A20Y,1.71
5,A20S,2.3
6,A20T,2.06
7,A23P,1.89
8,A23C,1.29
9,A23R,2.3
10,A23W,2.12
11,A23T,2.21
12,A23Y,1.3
13,A23E,1.84
14,A23M,1.83
15,A23S,1.92
16,A23I,1.6
17,A23L,2.36
18,A23Q,1.85
19,A23D,1.79
20,A23N,1.69
21,A23K,2.17
22,A23V,1.65
23,A23F,2.57

row,Variant,protein stability index
1,A23G,1.13
2,A23H,2.1
3,R18D,2.27
4,R18G,1.24
5,R18N,2.31
6,R18S,2.04
7,R18W,2.33
8,R18P,1.56
9,R18M,2.98
10,R18C,2.32
11,R18A,1.74
12,R18I,3.16
13,R18Y,2.2
14,R18F,1.75
15,R18Q,1.46
16,R18L,1.87
17,R18H,2.39
18,R18V,1.82
19,R18T,1.57
20,E19L,3.57
21,E19H,1.64
22,E19C,2.87
23,E19G,1.75

row,Variant,protein stability index
1,E19A,2.41
2,E19P,1.84
3,E19M,2.3
4,E19Y,1.81
5,E19V,1.51
6,E19W,1.96
7,E19F,2.97
8,E19S,1.81
9,E19Q,1.7
10,E19R,2.84
11,E19T,2.42
12,E19D,1.51
13,E19N,1.27
14,E19K,1.47
15,K17S,1.81
16,K17Q,1.85
17,K17W,1.84
18,K17Y,1.34
19,K17T,1.6
20,K17R,1.33
21,K17V,2.07
